Values belong to the substance of their own block, whether it stands above or below them.
Legend:
[1] = molecular target: 6 × His-tagged APR1 (AlmA Positive Regulator) (Acinetobacter venetianus RAG-1); assay: cross-linking; 0.1% glutaraldehyde added to 5 µg purified 6 × His-tagged APR1 in 50 mM Tris-HCl (pH 8.0), 10% glycerol; 0.5–1 h at 30°C; analysed by SDS-PAGE
[2] = tested on: T1, 6xHis-APR1 (Acinetobacter venetianus RAG-1), ORF:d17a4b85; assay: EMSA; settings: EMSA: 5 mM Tris-HCl pH 7.5, 0.1 mM EDTA, 5 mM MgCl2, 10 mM KCl, 0.2 mM DTT, 30 C, 30 min, native PAGE in 0.5x TBE; MST: 50 mM PBS pH 7.2-7.4, temperature not …
T1 sequence: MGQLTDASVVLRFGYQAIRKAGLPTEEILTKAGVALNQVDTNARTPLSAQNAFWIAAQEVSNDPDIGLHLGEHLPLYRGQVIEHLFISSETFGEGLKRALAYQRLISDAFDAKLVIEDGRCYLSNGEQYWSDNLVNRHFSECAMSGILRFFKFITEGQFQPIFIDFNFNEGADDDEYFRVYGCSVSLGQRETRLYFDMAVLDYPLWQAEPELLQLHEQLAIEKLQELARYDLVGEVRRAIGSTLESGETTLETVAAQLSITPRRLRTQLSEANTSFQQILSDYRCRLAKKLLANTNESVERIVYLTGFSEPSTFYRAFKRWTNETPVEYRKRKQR

[3] = tested on: 6xHis-APR1 (Acinetobacter venetianus RAG-1); assay: MST; settings: EMSA: 5 mM Tris-HCl pH 7.5, 0.1 mM EDTA, 5 mM MgCl2, 10 mM KCl, 0.2 mM DTT, 30 C, 30 min, native PAGE in 0.5x TBE; MST: 50 mM PBS pH 7.2-7.4, temperature not …

stoichiometry N [1]: 2
Substance: 6 × His-tagged APR1 (AlmA Positive Regulator) (natural protein)

Substance: AGCCTACCTGATGATCAAATTGGAAAGGCGCAAATTATAGTCAATTTATTTGAAATTTACAAGACGCTCTCTTAGCAAAGCTTGTACAGATGAATTGGAAAAAACTGTCAGACAATCCTCATTTTTTTTTAACAAAAGAAGCAGAATAGTGTTGTCAGTTTGGTCAATCAACGTTAATCTAAAATTATTGTTTATTGTCACAATAACGTATCTACAGGGAAGGGCACTGC (double strand) [apR1 promoter]
binding [2]: binds

Substance: almA promoter
Kd [3]: 97.2 nM

Source: PMC11784139
